Results as given in patent US20150344863.

Biological target: Factor X, P00742
Sequence (P00742 whole entry, looked up): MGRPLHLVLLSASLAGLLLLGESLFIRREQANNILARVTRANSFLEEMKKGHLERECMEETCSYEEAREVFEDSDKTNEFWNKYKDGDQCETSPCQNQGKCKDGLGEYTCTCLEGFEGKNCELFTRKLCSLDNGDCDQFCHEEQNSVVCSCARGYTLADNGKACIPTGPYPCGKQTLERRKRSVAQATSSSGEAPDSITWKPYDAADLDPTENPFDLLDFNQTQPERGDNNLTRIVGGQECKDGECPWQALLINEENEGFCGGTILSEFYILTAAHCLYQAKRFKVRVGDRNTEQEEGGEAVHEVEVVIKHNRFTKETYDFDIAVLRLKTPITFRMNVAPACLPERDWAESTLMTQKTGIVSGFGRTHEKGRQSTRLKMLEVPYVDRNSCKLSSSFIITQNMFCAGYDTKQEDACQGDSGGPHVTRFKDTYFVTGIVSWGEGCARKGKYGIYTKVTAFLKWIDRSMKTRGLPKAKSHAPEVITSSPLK

B1: desialylated wild-type Factor VII (dWT VIIa) (protein)
chain 1: ANAFLEELRPGSLERECKEEQCSFEEAREIFKDAERTKLFWISYSDGDQCASSPCQNGGSCKDQLQSYICFCLPAFEGRNCETHKDDQLICVNENGGCEQYCSDHTGTKRSCRCHEGYSLLADGVSCTPTVEYPCGKIPILEKRNASKPQGR
chain 2: IVGGKVCPKGECPWQVLLLVNGAQLCGGTLINTIWVVSAAHCFDKIKNWRNLIAVLGEHDLSEHDGDEQSRRVAQVIIPSTYVPGTTNHDIALLRLHQPVVLTDHVVPLCLPERTFSERTLAFVRFSLVSGWGQLLDRGATALELMVLNVPRLMTQDCLQQSRKVGDSPNITEYMFCAGYSDGSKDSCKGDSGGPHATHYRGTWYLTGIVSWGQGCATVGHFGVYTRVSQYIEWLQKLMRSEPRPGVLLRAPFP
Michaelis Menten kinetics of Factor X activation, Factor X titrated in the presence of sTF-Factor VII complexes (0.5 nM Factor VII, 125 nM sTF): dWT VIIa (dF7) can activate Factor X more effectively (approximately 2-fold) than wild-type Factor VII (F7)
